{"source": "patent US20260000781A1", "about": "“FC CONJUGATES INCLUDING AN INHIBITOR OF CD73 AND USES THEREOF” (Cidara Therapeutics, Inc., priority 2022, published 2026)", "binders": {"B1": {"name": "Mupadolimab (antibody, INN chains, looked up, V domains shown)", "VH": "QVQLVQSGAEVEKPGASVKVSCKASGYTFTSYWITWVRQAPGQGLEWMGDIYPGSGNTNYNEKFKTRVTITADKSTSTAYMELSSLRSEDTAVYYCAKEGGLTTEDYALDYWGQGTLVTVSS", "VL": "EIVLTQSPATLSLSPGERATLSCRASKNVSTSGYSYMHWYQQKPGQAPRLLIYLASNLESGIPPRFSGSGYGTDFTLTINNIESEDAAYYFCQHSRELPFTFGQGTKVEIK"}}, "key": {"[1]": {"target": "T1, human CD73 expressed on cells (human) (UniProt P21589)", "T1 sequence (looked up)": "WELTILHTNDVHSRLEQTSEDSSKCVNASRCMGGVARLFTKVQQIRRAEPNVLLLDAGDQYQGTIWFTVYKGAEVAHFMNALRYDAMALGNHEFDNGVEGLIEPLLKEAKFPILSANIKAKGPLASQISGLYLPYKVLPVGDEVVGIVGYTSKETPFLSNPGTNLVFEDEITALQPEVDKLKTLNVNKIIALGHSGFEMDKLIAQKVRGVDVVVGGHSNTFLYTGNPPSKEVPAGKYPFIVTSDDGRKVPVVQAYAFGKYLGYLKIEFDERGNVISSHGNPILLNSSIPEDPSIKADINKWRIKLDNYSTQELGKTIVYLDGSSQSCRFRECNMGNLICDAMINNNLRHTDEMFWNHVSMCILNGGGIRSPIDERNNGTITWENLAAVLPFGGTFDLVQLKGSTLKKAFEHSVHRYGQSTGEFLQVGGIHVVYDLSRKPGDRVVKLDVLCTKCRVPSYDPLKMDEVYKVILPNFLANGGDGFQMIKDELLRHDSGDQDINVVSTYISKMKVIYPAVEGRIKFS", "experiment": "flow cytometry, MDA-MB-231 cells, anti-human Fc detection, gMFI; no AMP"}, "[2]": {"target": "T1, human CD73 expressed on cells (human)", "experiment": "flow cytometry, MDA-MB-231 cells, anti-human Fc detection, gMFI"}, "[3]": {"target": "T1, human CD73 expressed on cells (human)", "experiment": "flow cytometry, MDA-MB-231 cells, anti-human Fc detection, gMFI; with 10 µM AMP"}, "[4]": {"target": "T1, human CD73 expressed on cells (human)", "experiment": "flow cytometry, MDA-MB-231 cells, anti-human Fc detection, gMFI; with 1,000 µM AMP"}, "[5]": {"target": "T1, human CD73 expressed on cells (human)", "experiment": "flow cytometry, MDA-MB-231 cells, anti-human Fc detection, gMFI; 0 µM AMP"}, "[6]": {"target": "T1, human CD73 expressed on cells (human)", "experiment": "flow cytometry, MDA-MB-231 cells, anti-human Fc detection, gMFI; with 100 µM AMP"}, "[7]": {"target": "T1, human CD73 expressed on cells (human)", "experiment": "flow cytometry, MDA-MB-231 cells, anti-human Fc detection, gMFI; with 100 nM AB680"}, "[8]": {"target": "T1, human CD73 expressed on cells (human)", "experiment": "flow cytometry, MDA-MB-231 cells, PE anti-human Fc detection, % labelled cells"}, "[9]": {"target": "T1, human CD73 expressed on cells (human)", "experiment": "flow cytometry, MDA-MB-231 cells, anti-human Fc detection, gMFI; with 10 µM AMP", "remark": "listed apart in the source"}, "[10]": {"target": "T1, human CD73 expressed on cells (human)", "experiment": "flow cytometry, MDA-MB-231 cells, anti-human Fc detection, gMFI; with 1 nM AB680"}, "[11]": {"target": "T1, human CD73 expressed on cells (human)", "experiment": "cell-based or functional assay"}, "[12]": {"target": "T2, recombinant human CD73 enzyme (human) (UniProt P21589)", "T2 sequence (looked up)": "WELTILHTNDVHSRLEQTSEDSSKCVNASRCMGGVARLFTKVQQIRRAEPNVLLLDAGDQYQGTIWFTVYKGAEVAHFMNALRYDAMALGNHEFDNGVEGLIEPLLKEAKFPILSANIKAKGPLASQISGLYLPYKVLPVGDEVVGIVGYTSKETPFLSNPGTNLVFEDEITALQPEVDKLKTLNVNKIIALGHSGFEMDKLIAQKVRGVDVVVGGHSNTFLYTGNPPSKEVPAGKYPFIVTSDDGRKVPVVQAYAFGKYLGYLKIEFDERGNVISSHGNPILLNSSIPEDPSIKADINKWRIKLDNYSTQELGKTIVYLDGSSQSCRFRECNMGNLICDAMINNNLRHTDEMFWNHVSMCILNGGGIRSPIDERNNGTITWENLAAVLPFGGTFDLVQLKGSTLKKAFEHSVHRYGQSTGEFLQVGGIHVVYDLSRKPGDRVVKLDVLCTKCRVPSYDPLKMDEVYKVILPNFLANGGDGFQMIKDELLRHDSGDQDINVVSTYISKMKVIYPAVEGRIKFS", "experiment": "cell-based or functional assay"}, "[13]": {"target": "T1, human CD73 expressed on cells (human)", "experiment": "flow cytometry, MDA-MB-231 cells, anti-human Fc detection, gMFI; with 1,000 µM AMP", "remark": "listed apart in the source"}, "[14]": {"target": "T1, human CD73 expressed on cells (human)", "experiment": "flow cytometry, MDA-MB-231 cells, anti-human Fc detection, gMFI; with 100 nM AB680", "remark": "listed apart in the source"}, "[15]": {"target": "T1, human CD73 expressed on cells (human)", "experiment": "flow cytometry, MDA-MB-231 cells, anti-human Fc detection, gMFI; no AB680 (column headed No AMP)"}, "[16]": {"target": "T1, human CD73 expressed on cells (human)", "experiment": "cell-based or functional assay", "remark": "listed apart in the source"}, "[17]": {"target": "T1, human CD73 expressed on cells (human)", "experiment": "flow cytometry, MDA-MB-231 cells, anti-human Fc detection, gMFI; 0 nM AB680"}, "[18]": {"target": "T1, human CD73 expressed on cells (human)", "experiment": "cell-based or functional assay", "remark": "listed apart in the source"}, "[19]": {"target": "T1, human CD73 expressed on cells (human)", "experiment": "flow cytometry, MDA-MB-231 cells, anti-human Fc detection, gMFI; with 10 nM AB680"}, "[20]": {"target": "T1, human CD73 expressed on cells (human)", "experiment": "flow cytometry, MDA-MB-231 cells, anti-human Fc detection, gMFI; with 100 µM AMP", "remark": "listed apart in the source"}, "[21]": {"target": "T1, human CD73 expressed on cells (human)", "experiment": "flow cytometry, MDA-MB-231 cells, anti-human Fc detection, gMFI; with 1 nM AB680", "remark": "listed apart in the source"}, "[22]": {"target": "T1, human CD73 expressed on cells (human)", "experiment": "flow cytometry, MDA-MB-231 cells, anti-human Fc detection, gMFI; with 10 nM AB680", "remark": "listed apart in the source"}}, "note": "Where two headings read alike, the source gives them in different places."}
{"binder": "B1", "values": [{"measurement": "IC50", "setting": "[1]", "result": 0.025, "unit": "nM"}, {"measurement": "fold reduction of binding at high AMP concentration", "setting": "[2]", "result": 2, "unit": "fold"}, {"measurement": "IC50", "setting": "[3]", "result": 0.048, "unit": "nM"}, {"measurement": "IC50", "setting": "[4]", "result": 0.14, "unit": "nM"}, {"measurement": "IC50", "setting": "[5]", "result": 0.1, "unit": "nM"}, {"measurement": "IC50", "setting": "[6]", "result": 0.16, "unit": "nM"}, {"measurement": "IC50", "setting": "[7]", "result": 8.48, "unit": "nM"}, {"measurement": "EC50", "setting": "[8]", "result": 1.25, "unit": "nM"}, {"measurement": "IC50", "setting": "[9]", "result": 0.12, "unit": "nM"}, {"measurement": "IC50", "setting": "[10]", "result": 0.88, "unit": "nM"}, {"measurement": "% CD73 receptor internalization, MDA-MB-231", "setting": "[11]", "result": "> 70", "unit": "%"}, {"measurement": "CD73 inhibition, human PBMCs, 3 h IC50 [nM]", "setting": "[11]", "result": 2.85, "unit": "nM"}, {"measurement": "CD73 inhibition, human PBMCs, 3 h median IC50 [nM]", "setting": "[11]", "result": 9.27, "unit": "nM"}, {"measurement": "CD73 inhibition, human PBMCs, 24 h IC50 [nM]", "setting": "[11]", "result": 44.2, "unit": "nM"}, {"measurement": "CD73 inhibition, human PBMCs, 24 h median IC50 [nM]", "setting": "[11]", "result": 29.9, "unit": "nM"}, {"measurement": "Cell internalization EC50 (nM), Fab-ZAP saporin assay, MDA-MB-231", "setting": "[11]", "result": 0.055, "unit": "nM"}, {"measurement": "Cell-based CD73 inhibition IC50 (nM), MDA-MB-231 cells", "setting": "[11]", "result": 3.82, "unit": "nM"}, {"measurement": "PBMC activation (CD25+), 30 µM AMP EC50 [nM]", "setting": "[11]", "result": 576, "unit": "nM"}, {"measurement": "PBMC activation, CD4+CD25+ EC50 [nM] (median, n = 3)", "setting": "[11]", "result": 28, "unit": "nM"}, {"measurement": "PBMC activation, CD8+CD25+ EC50 [nM]", "setting": "[11]", "result": 932, "unit": "nM"}, {"measurement": "PBMC activation, CD8+CD25+ EC50 [nM] (median, n = 3)", "setting": "[11]", "result": 84, "unit": "nM"}, {"measurement": "PBMC activation, CD8+Granzyme B+ EC50 [nM] (median, n = 3)", "setting": "[11]", "result": 83, "unit": "nM"}, {"measurement": "PBMC activation, CD8+granzyme B+ EC50 [nM]", "setting": "[11]", "result": 63.1, "unit": "nM"}, {"measurement": "cell-based CD73 enzyme inhibition IC50 (MDA-MB-231 cells)", "setting": "[11]", "result": 1.16, "unit": "nM"}, {"measurement": "inhibition of adenosine production (AMP conversion by CellTiter-Glo), human PBMCs, EC50 [nM]", "setting": "[11]", "result": 10, "unit": "nM"}, {"measurement": "Cell free CD73 inhibition IC50", "setting": "[12]", "result": "> 100", "unit": "nM"}, {"measurement": "IC50", "setting": "[13]", "result": 0.2, "unit": "nM"}, {"measurement": "IC50", "setting": "[14]", "result": 4.19, "unit": "nM"}, {"measurement": "IC50", "setting": "[15]", "result": 0.09, "unit": "nM"}, {"measurement": "% CD73 receptor internalization, MDA-MB-231", "setting": "[16]", "result": "> 60", "unit": "%"}, {"measurement": "IC50", "setting": "[17]", "result": 0.1, "unit": "nM"}, {"measurement": "Cell internalization EC50 (nM), Fab-ZAP saporin assay, MDA-MB-231", "setting": "[18]", "result": 0.06, "unit": "nM"}, {"measurement": "IC50", "setting": "[19]", "result": 1.54, "unit": "nM"}, {"measurement": "IC50", "setting": "[20]", "result": 0.12, "unit": "nM"}, {"measurement": "IC50", "setting": "[21]", "result": 1.39, "unit": "nM"}, {"measurement": "IC50", "setting": "[22]", "result": 2.59, "unit": "nM"}]}
